The values that follow come from the nanobody polyreactivity screen of Harvey et al. (2022).

The series can be described thus: yeast display, Sf9 membrane polyspecificity reagent, FACS + sequencing; frameworks hold sequencing errors. An outline of the steps:
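Nanobodies came from a synthetic yeast display library in Saccharomyces cerevisiae BJ5465, induced with galactose for 36–48 hours and stained for 1 hour at 4 °C with 10% biotinylated, detergent-solubilized Sf9 membrane reagent. Cells were enriched on streptavidin microbeads and then FACS-sorted, with low and high (top ~1%) gates set on anti-HA fluorescence for expression and streptavidin fluorescence for reagent binding. Each polyreactivity label reflects the gate a clone came from. Genes were amplified by colony PCR, sequenced by MiSeq 2 × 250 and filtered by CDR length.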
Take “QVQLVESGGGLVQAGGSLRLSCAASGSTFRQYAMGWYRQAPGKERELVAAISTNGVSTRYADSVKGRFTISRDNAKNTVYLQMNSLKPEDTAVYSCAAGYRKSYTYYRYDYWGQGTQVTVSS”: the “polyreactivity (PSR sort gate)” value was “high polyreactivity”. For “QVQLVESGGGLVQAGGSLRLSCAASGSTFRQYAMGWYRQAPGKERELVAATTSSGGSTYYADSVKGRFTISRDNAKNTVYLQMNSLKPDDTAVYYCNVDGRSDGDDYWGQGTHVTVSS” the value was “low polyreactivity”; for “QVQLVESGGGLVQAGGSLRLSCAASGSTFRQYTMGWYRQAPGKERELVAAISRGCGNTYYADSVKGRFTISRDNAKNTVYLQMNSLKPEDTAVYYCAADRSYSGDSWGQGTQVTVSS”, “high polyreactivity”; for “QVQLVESGGGLVQAGGSLRLSCAASGSTFRRNAMGWYRQAPGKERELVAAITWRGGSTSYADSVKGRFTISRDNAKNTVYLQMNSLKPEDTGVYYCAAVKGHSQVLSYGYWGQGTQVTVSS”, “low polyreactivity”.

For the sequence “QVQLVESGGGLVQAGGSLRLSCAASGSTFRRYAMGWNRKAPGKERELVAAISGRGGSTSYADSVTGRFTISRDNAKNTVFLQMNSLKPEETAVYYCAADDKYFYPGNGYWGQGTQVTVSS”, the “polyreactivity (PSR sort gate)” value was “high polyreactivity”.

With “QVQLVESGGGLVQAGGSLRLSCAASGSTFRRYAMGWYRPAPGKERELVAVITSRGGSTYYADSVKGRFTISRDNAKNTVYLQMNSLKPEDTAVYYCAAGYTSGYWANHYTPRFYYWGQGTQVTVSS”, the “polyreactivity (PSR sort gate)” value is recorded as “high polyreactivity”. For “QVQLVESGGGLVQAGGSLRLSCAASGSTFRRYAMGWYRQAPGKERELVASISWSGGSTSYADSVKGRFTISRDTAKNTVYLQMNSLKPEDTAVYYCAAVRYYWGEYYARYAYEYWGQGTQVTVSS” the value was “high polyreactivity”.

Regarding “QVQLVESGGGLVQAGGSLRLSCAASGSTFRRYAMGWYRQAPGNERELVAAITGSGGRTYYADSVKGRFTISRDNAKNTVYLQMNSLKPEDTAVYYCAARGTHSRRRYYYWGQGTQVTVSS”, the “polyreactivity (PSR sort gate)” value was “high polyreactivity”. For the sequence “QVQLVESGGGLVQAGGSLRLSCAASGSTFRRYTMGWYRQAPGKERELVAAISSGGSTYYADSVKGRFTISLDNAKNTVYLQMNSLKPEDTAVYYCAAKNYPLTRYWRYDYSEYYYWGQGTQVTVSS”, the “polyreactivity (PSR sort gate)” value is given as “high polyreactivity”. For “QVQLVESGGGLVQAGGSLRLSCAASGSTFRSNAMGWYRQAPGKEGELVAAISSRVGTTNYADSVKGRFTISRDNAKNTVYLQMNSLKPEDTAVYYCAAQGWRYYRTVVPMDYWGQGTQVTVSS” the value was “low polyreactivity”. Take “QVQLVESGGGLVQAGGSLRLSCAASGSTFRSNAMGWYRQAPGKERELVASITSRGGSTYYADSVKGRFTISRDNAKNTVYLQMNSLKPEDTAVYYCATARSYLTYSYHYDYWGQGTQVTVSS”: the “polyreactivity (PSR sort gate)” value is given as “low polyreactivity”. Then “QVQLVESGGGLVQAGGSLRLSCAASGSTFRSNAMGWYRQAPGKESELVAAITRRGSTYYADSVKGRFTISRDNAKNTVYLQMNSVKPEDTAVYYCAARVPGYASGASGYSSYRYEYWGQGTQVTVSS”, with “high polyreactivity”; and “QVQLVESGGGLVQAGGSLRLSCAASGSTFRSYAMGGYIQAPGKERELVAAISGRGGSTYYADSVKGRFTISRDNAKNPVYLQMNSLKPEDTAVYYCNAVPGVSYWGQGLDYWGQGTQVTVSS”, with “low polyreactivity”; and “QVQLVESGGGLVQAGGSLRLSCAASGSTFRSYAMGWYRQAPGKERELVAAISRGGSTYYADSVKGRFTISRDNAKNTVYLQMNSLKPEDTAVYYCAARPPRGSWQYDYWGQGTQVTVSS”, with “high polyreactivity”.

For the sequence “QVQLVESGGGLVQAGGSLRLSCAASGSTFRSYAMGWYRQAPGKERELVAAISSTGGSTYYADSVKCRFTISRDTAKNTVYFQMNSLKPVDTAVYYCAADFLYYEYDYWGQGTQVTVSS”, the “polyreactivity (PSR sort gate)” value is “low polyreactivity”. Turning to “QVQLVESGGGLVQAGGSLRLSCAASGSTFRSYAMGWYRQAPWKERELVAAISSSGGSTYYADSVKGRFTISRDNANNTVYLQMNSLKPEDTAVYICAADFLYYEYDYWGQGTQVTVSS”, the “polyreactivity (PSR sort gate)” value is recorded as “low polyreactivity”.
